The assay has as its target T1, Ecm9 (recombinant, subunit of yeast GGT3) (budding yeast (S. cerevisiae), UniProt Q02202 1-377).
T1 construct: Ecm9, budding yeast; no tag is named for this chain; also called recombinant yeast GGT3 α subunit
T1 sequence (looked up): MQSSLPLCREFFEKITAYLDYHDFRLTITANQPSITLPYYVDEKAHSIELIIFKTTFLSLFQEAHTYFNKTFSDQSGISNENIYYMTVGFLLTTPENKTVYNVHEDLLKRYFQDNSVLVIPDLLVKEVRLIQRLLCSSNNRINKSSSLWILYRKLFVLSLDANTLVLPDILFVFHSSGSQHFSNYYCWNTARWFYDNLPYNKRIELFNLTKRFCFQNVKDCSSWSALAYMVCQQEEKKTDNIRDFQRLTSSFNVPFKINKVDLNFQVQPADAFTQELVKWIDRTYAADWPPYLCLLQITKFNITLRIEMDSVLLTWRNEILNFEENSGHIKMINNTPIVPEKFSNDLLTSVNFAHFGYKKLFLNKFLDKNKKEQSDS
Description: SEC; Ecm9 and GST-Bet2 co-expressed in ExpiSf cells and co-purified (glutathione Sepharose, GST cleaved, MonoQ), then Superdex 200 Increase gel filtration in buffer A (50 mM HEPES-KOH pH 7.4, 50 mM NaCl, 5 mM MgCl2, 1 mM DTT); SDS-PAGE with Coomassie staining. Particulars: both partners purified. (In general: SEC sorts molecules by how far they enter the pores of the column.)

B1: Bet2 (recombinant, subunit of yeast GGT3) (natural protein, budding yeast (S. cerevisiae), UniProt P20133 1-325, looked up)
chain: MSGSLTLLKEKHIRYIESLDTKKHNFEYWLTEHLRLNGIYWGLTALCVLDSPETFVKEEVISFVLSCWDDKYGAFAPFPRHDAHLLTTLSAVQILATYDALDVLGKDRKVRLISFIRGNQLEDGSFQGDRFGEVDTRFVYTALSALSILGELTSEVVDPAVDFVLKCYNFDGGFGLCPNAESHAAQAFTCLGALAIANKLDMLSDDQLEEIGWWLCERQLPEGGLNGRPSKLPDVCYSWWVLSSLAIIGRLDWINYEKLTEFILKCQDEKKGGISDRPENEVDVFHTVFGVAGLSLMGYDNLVPIDPIYCMPKSVTSKFKKYPYK
notes: Bet2, budding yeast; also called GST-BET2; recombinant yeast GGT3 β subunit; not shown: GST, N-terminal, cleaved
For the molecule B1, the binding result is given as “binds”.
